Drawing on patent publication US20030166864A1 (Human Genome Sciences, published 2003), this text covers Kd for 1 molecule.

This assay addresses T1, TACI-Fc fusion protein (transmembrane activator and CAML-interactor fused to Fc) (Homo sapiens (Human), UniProt O14836 1-159).
T1 construct: also called TACI-FC protein; Full-length TACI-Fc; not shown: Fc part from the vector pC4-Fc
T1 sequence: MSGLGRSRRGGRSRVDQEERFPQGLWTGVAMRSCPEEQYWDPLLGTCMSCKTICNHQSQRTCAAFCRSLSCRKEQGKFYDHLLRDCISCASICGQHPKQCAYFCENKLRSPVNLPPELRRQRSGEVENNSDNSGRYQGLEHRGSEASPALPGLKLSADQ
Put plainly: BIAcore (SPR), TACI-Fc amine-coupled to a CM5 chip, TNF-epsilon in flow. On the procedure:
BIAcore analysis was performed essentially as follows. TACI-FC protein was immobilized to the BIAcore sensor chip (CM5 chip) via amine groups using N-ethyl-N′-(dimethlaminopropyl)carbodiimide/N-hydroxysuccinimide chemistry. Various dilutions of TNF-epsilon or other TNF ligands were flowed over the receptor-derivatized flow cells at a rate of 15 microliters per minute for a total volume of 50 microliters. The amount of bound protein was determined during washing of the flow cell with HBS buffer (10 mM HEPES, pH 7.4, 150 mM NaCl, 3.4 mM EDTA, 0.005% Surfactant P20). Binding specificity of TNF-epsilon to TACI was determined by competition with soluble competitor. The flow cell surface was regenerated by displacing bound protein by washing with 20 microliters of 10 mM glycine-HCl, pH=2.3.

B1: TNF-epsilon (purified, trimeric form isolated by size exclusion chromatography) (ligand)
chain: AVLTQKQKNDSDVTEVMWQPALRRGRGLQAQGYGVRIQDAGVYLLYSQVLFQDVTFTMGQVVSREGQGRQETLFRCIRSMPSHPDRAYNSCYSAGVFHLHQGDILSVIIPRARAKLNLSPHGTFLGFVKL
Broadly, the Kd is the concentration at which binding is half-saturated. Higher therefore signals a looser complex. Turning to B1, binding was put at a Kd of 6 nM.
